Common to all, as to assay: SPR
(In SPR one partner is held on a chip, and binding of the other changes the refractive index at the surface.)

Experiment [1] has as its target T1, human NL3(–A)_(ECTO) (Gln38-Asp636), immobilised for SPR (human, UniProt Q9NZ94-1 38-636, –A: nothing between Asp152 and Asp193, biotin on the Avitag (in vivo biotinylation by BirA)).
For experiment [2], the target named is T2, human NL1(–A–B)_(ECTO), biotinylated and immobilised for SPR (human, biotin on the Avitag (in vivo biotinylation by BirA)).
T2 chain: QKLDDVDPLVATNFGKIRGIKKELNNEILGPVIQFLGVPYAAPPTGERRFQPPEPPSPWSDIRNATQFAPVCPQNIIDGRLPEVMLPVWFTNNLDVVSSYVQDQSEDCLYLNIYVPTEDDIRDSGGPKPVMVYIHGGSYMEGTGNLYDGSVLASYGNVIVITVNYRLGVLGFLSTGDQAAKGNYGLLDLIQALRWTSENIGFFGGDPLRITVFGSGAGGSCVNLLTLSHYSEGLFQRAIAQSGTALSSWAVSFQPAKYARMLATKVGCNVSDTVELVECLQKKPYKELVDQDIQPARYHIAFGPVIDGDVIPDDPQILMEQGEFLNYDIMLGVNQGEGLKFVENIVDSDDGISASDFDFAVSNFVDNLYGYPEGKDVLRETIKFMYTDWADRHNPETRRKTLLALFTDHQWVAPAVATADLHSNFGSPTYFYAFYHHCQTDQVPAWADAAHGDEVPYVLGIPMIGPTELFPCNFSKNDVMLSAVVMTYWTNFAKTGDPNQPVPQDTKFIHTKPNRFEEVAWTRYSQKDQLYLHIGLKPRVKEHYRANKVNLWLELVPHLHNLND

Experiment [3] deals with T3, human NL5_(ECTO) (NL4(Y); Gln42-Glu602), immobilised for SPR (human, UniProt Q8NFZ3-1 42-602, biotin on the Avitag (in vivo biotinylation by BirA)).
T3 chain: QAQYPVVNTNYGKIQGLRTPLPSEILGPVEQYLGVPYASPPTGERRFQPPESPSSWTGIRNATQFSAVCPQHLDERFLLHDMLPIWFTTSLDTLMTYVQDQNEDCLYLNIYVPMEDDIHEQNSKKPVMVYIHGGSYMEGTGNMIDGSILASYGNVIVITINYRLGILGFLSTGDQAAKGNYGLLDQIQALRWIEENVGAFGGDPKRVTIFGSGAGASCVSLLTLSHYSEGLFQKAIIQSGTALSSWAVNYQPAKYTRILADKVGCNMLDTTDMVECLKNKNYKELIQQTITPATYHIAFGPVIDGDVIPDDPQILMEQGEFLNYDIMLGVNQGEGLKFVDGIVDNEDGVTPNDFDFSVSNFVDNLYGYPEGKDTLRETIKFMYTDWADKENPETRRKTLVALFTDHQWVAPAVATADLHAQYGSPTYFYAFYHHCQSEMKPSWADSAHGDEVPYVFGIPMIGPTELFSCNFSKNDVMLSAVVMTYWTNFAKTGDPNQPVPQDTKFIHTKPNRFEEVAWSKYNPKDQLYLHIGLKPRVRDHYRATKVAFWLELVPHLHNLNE

Experiment [4] has as its target T4, human NL4_(ECTO) (NL4(X); Gln42-Glu602), immobilised for SPR (human, UniProt Q8N0W4-1 42-602, biotin on the Avitag (in vivo biotinylation by BirA)).
T4 chain: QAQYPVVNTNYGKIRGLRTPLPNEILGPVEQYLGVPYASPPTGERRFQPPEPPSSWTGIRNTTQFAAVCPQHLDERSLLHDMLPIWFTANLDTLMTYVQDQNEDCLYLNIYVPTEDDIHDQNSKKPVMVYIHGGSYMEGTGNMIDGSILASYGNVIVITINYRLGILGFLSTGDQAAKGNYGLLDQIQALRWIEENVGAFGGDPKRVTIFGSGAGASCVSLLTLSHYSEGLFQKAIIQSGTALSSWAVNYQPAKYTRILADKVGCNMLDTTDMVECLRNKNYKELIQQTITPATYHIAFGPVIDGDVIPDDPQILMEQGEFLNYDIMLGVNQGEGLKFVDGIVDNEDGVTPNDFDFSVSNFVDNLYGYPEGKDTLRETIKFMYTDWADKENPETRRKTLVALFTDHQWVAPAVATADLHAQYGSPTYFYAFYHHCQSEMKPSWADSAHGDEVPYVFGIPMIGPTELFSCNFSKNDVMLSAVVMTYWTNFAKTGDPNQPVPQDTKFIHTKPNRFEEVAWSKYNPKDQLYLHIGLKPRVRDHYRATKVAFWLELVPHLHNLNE

Experiment [5] has as its target human NL2(–A)_(ECTO) (Glu38-His612), immobilised for SPR (human, UniProt Q8NFZ4 38-612, –A: GPLTKKRDEATLNPPDT between Asp152 and Asp170 absent, biotin on the Avitag (in vivo biotinylation by BirA)).
Experiment [6] concerns the target T1, human NL3(–A)_(ECTO) (Gln38-Asp636), …. The source holds these as a separate data set.

Like-named read-outs stand apart in the source and are kept apart here.

This is an account of results in article PMC5563082 (2017).

Chain of human NL2(–A)_(ECTO) (Glu38-His612), immobilised for SPR (Q8NFZ4 other isoform, or with tags, fused parts or gaps with the stated changes): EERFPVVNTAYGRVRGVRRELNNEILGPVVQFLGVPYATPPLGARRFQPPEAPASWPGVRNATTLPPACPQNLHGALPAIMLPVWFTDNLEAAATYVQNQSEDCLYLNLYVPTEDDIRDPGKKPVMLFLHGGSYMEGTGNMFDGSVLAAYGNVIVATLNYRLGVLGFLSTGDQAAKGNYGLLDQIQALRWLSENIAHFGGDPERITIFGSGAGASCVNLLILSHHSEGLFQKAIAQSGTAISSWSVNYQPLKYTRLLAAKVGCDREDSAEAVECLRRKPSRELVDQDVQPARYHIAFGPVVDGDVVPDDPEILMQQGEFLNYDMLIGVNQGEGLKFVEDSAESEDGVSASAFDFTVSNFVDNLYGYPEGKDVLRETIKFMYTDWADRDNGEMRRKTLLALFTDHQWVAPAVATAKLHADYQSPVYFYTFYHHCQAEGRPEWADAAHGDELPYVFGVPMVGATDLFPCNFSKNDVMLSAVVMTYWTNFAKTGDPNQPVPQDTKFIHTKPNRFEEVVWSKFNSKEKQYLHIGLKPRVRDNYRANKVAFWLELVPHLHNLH
T1 sequence (Q9NZ94 other isoform, or with tags, fused parts or gaps –A: nothing between Asp152 and Asp193): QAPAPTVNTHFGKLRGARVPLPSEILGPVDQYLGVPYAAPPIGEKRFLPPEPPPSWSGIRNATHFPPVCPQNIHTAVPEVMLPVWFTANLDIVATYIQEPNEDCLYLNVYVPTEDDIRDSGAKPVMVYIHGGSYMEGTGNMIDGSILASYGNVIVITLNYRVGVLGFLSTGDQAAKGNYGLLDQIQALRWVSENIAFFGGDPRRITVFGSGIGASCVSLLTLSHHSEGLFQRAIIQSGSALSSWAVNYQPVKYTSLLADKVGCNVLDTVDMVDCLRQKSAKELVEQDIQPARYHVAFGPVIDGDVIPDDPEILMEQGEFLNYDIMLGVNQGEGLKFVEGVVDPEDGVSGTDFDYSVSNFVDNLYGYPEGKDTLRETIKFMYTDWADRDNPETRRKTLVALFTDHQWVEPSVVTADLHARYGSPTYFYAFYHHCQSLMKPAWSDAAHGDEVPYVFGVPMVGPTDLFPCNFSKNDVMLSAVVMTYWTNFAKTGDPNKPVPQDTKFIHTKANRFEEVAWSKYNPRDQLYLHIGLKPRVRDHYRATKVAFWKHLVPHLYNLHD

B1: human β-neurexin-1 LNS6 domain lacking SS4 (β-NRX1_(LNS6)(–4); His85-Val265) (domain or fragment)
chain: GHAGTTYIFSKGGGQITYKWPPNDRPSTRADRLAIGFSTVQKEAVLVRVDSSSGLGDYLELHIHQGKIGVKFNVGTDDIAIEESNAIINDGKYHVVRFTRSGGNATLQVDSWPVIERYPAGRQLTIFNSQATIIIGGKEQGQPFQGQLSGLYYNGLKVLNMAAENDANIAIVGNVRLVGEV
A word on the Kd: it is a measure of binding affinity in units of concentration. Higher therefore signals weaker binding. Turning to B1, the equilibrium dissociation constant (Kd) in experiment [1] worked out at 9.48 µM; in experiment [2], 0.64 µM; in experiment [3], 3.16 µM; in experiment [4], 2.49 µM; in experiment [5], 0.699 µM.

B2: human β-neurexin-1 LNS6 domain with SS4 (β-NRX1_(LNS6)(+4)) (domain or fragment)
chain: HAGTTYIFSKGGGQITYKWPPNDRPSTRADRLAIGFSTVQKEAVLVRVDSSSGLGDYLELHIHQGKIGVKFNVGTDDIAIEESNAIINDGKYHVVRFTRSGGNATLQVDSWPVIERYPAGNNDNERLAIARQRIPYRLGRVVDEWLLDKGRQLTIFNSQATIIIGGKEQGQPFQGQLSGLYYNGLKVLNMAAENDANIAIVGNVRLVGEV
As for B2, the Kd in experiment [1] stood at 36.8 µM; in experiment [2], 2.63 µM; in experiment [6], 22.1 µM; in experiment [3], 14.2 µM; in experiment [4], 9.66 µM; in experiment [5], 4 µM.

B3: human MDGA2 extracellular domain (MDGA2_(ECTO); Gln21-Lys927) (domain or fragment)
chain: QGVYAPPTVRIVHSGLACNIEEERYSERVYTIREGETLELTCLVTGHPRPQIRWTKTAGSASDRFQDSSVFNETLRITNIQRHQGGRYYCKAENGLGSPAIKSIRVDVYYLDDPVVTVHQSIGEAKEQFYYERTVFLRCVANSNPPVRYSWRRGQEVLLQGSDKGVEIYEPFFTQGETKILKLKNLRPQDYANYSCIASVRNVCNIPDKMVSFRLSNKTASPSIKLLVDDPIVVNPGEAITLVCVTTGGEPAPSLTWVRSFGTLPEKTVLNGGTLTIPAITSDDAGTYSCIANNNVGNPAKKSTNIIVRALKKGRFWITPDPYHKDDNIQIGREVKISCQVEAVPSEELTFSWFKNGRPLRSSERMVITQTDPDVSPGTTNLDIIDLKFTDFGTYTCVASLKGGGISDISIDVNISSSTVPPNLTVPQEKSPLVTREGDTIELQCQVTGKPKPIILWSRADKEVAMPDGSMQMESYDGTLRIVNVSREMSGMYRCQTSQYNGFNVKPREALVQLIVQYPPAVEPAFLEIRQGQDRSVTMSCRVLRAYPIRVLTYEWRLGNKLLRTGQFDSQEYTEYAVKSLSNENYGVYNCSIINEAGAGRCSFLVTGKAYAPEFYYDTYNPVWQNRHRVYSYSLQWTQMNPDAVDRIVAYRLGIRQAGQQRWWEQEIKINGNIQKGELITYNLTELIKPEAYEVRLTPLTKFGEGDSTIRVIKYSAPVNPHLREFHCGFEDGNICLFTQDDTDNFDWTKQSTATRNTKYTPNTGPNADRSGSKEGFYMYIETSRPRLEGEKARLLSPVFSIAPKNPYGPTNTAYCFSFFYHMYGQHIGVLNVYLRLKGQTTIENPLWSSSGNKGQRWNEAHVNIYPITSFQLIFEGIRGPGIEGDIAIDDVSIAEGECAKQDLATK
In the case of B3, the Kd in experiment [1] was found to be 24.9 µM; in experiment [2] it was 1.69 µM; in experiment [6], 27.6 µM; in experiment [3] it was 21.9 µM; in experiment [4] it was 14.4 µM; in experiment [5], 0.768 µM.

B4: human MDGA1 extracellular domain (MDGA1_(ECTO); Gln19-Lys925) (domain or fragment)
chain: QGVYAPAQAQIVHAGQACVVKEDNISERVYTIREGDTLMLQCLVTGHPRPQVRWTKTAGSASDKFQETSVFNETLRIERIARTQGGRYYCKAENGVGVPAIKSIRVDVQYLDEPMLTVHQTVSDVRGNFYQEKTVFLRCTVNSNPPARFIWKRGSDTLSHSQDNGVDIYEPLYTQGETKVLKLKNLRPQDYASYTCQVSVRNVCGIPDKAITFRLTNTTAPPALKLSVNETLVVNPGENVTVQCLLTGGDPLPQLQWSHGPGPLPLGALAQGGTLSIPSVQARDSGYYNCTATNNVGNPAKKTVNLLVRSMKNATFQITPDVIKESENIQLGQDLKLSCHVDAVPQEKVTYQWFKNGKPARMSKRLLVTRNDPELPAVTSSLELIDLHFSDYGTYLCMASFPGAPVPDLSVEVNISSETVPPTISVPKGRAVVTVREGSPAELQCEVRGKPRPPVLWSRVDKEAALLPSGLPLEETPDGKLRLERVSRDMSGTYRCQTARYNGFNVRPREAQVQLNVQFPPEVEPSSQDVRQALGRPVLLRCSLLRGSPQRIASAVWRFKGQLLPPPPVVPAAAEAPDHAELRLDAVTRDSSGSYECSVSNDVGSAACLFQVSAKAYSPEFYFDTPNPTRSHKLSKNYSYVLQWTQREPDAVDPVLNYRLSIRQLNQHNAVVKAIPVRRVEKGQLLEYILTDLRVPHSYEVRLTPYTTFGAGDMASRIIHYTEPINSPNLSDNTCHFEDEKICGYTQDLTDNFDWTRQNALTQNPKRSPNTGPPTDISGTPEGYYMFIETSRPRELGDRARLVSPLYNASAKFYCVSFFYHMYGKHIGSLNLLVRSRNKGALDTHAWSLSGNKGNVWQQAHVPISPSGPFQIIFEGVRGPGYLGDIAIDDVTLKKGECPRKQTDPNK
For the molecule B4, the equilibrium dissociation constant (Kd) came out at 17.1 µM in experiment [1]; 3.62 µM in experiment [2]; 14.6 µM in experiment [6]; 23.2 µM in experiment [3]; 14.7 µM in experiment [4].
